For experiment [1], the target named is Siglec-9 protein (construct not stated; antigen of Examples 3 and 4) (human, UniProt Q9Y336 18-348, limits assumed). The experiment in a line: SPR (Carterra LSA), antibody coupled to HC2000M chip, antigen at 20, 100 and 500 nM. Here is the method:
KD determination was performed by SPR by individually coating the antibodies to HC2000M chips via sulpho-NHS/EDC coupling chemistry. Chips were afterwards blocked with ethanolamine. Antigen was applied in one of the three different concentrations (20 nM, 100 nM and 500 nM) with a contact time of 240 s, followed by a dissociation phase of 120 s. After each antigen incubation, the bound antigen was removed from the antibodies with 10 mM glycine at pH 2.0. All kinetic parameters (kₒₙ, koff and KD) were determined using a kinetic fitting program (LSA Kinetics, Carterra).

In experiment [2] the target is T1, Siglec-8-Fc (R&D systems) (UniProt Q9NYZ4 17-363, limits assumed).
T1 construct: Bought reagent; not shown: Fc part of the bought fusion; not described
Description: ELISA, coated Siglec-8-Fc 1 µg/ml, single antibody concentration, anti-human Fab detection, Abs 450 nm, n=3. The method, then:
(§1) Specificity towards Siglec-5, Siglec-7, Siglec-8, Siglec-15 and Siglec-9 was assayed in enzyme-linked immunosorbent assay (ELISA) using 96 well half-area ELISA plates (Corning). Siglec-5-Fc (R&D systems), Siglec-7-Fc (in-house production, Siglec-7-Fc protein used had the following amino acid sequence:
(§2) (SEQ ID NO: 59)) […] […] […] […] […] […] […] […] […] […] […] […], Siglec-8-Fc (R&D systems), Siglec-15- Fc (R&D systems) and Siglec-9-Fc (in-house production, SEQ ID NO: 11) were coated at 1 μg/ml in 50 mM carbonate-bicarbonate buffer pH 9.6 for 15-20 hours at 4° C.
(§3) Antigens were washed away (Tecan Hydrospeed) and plates were blocked with 5% skimmed milk in phosphate-buffered saline (PBS). After washing the plates, antibodies were added at 5 μg/ml (33 nM) in 0.5% milk PBS in triplicates. Plates with antibodies were incubated for 1 hour at room temperature. Plates were washed and bound antibodies were detected by horseradish peroxidase (HRP)-labeled polyclonal anti-rabbit IgG antibody (Biolegend) or anti-human Fab fragment for mAbA (Sigma Aldrich). 3,3′,5,5′-Tetramethylbenzidine (TMB; Sigma Aldrich) development was stopped by addition of sulfuric acid and absorbance was detected at 450 nm (Tecan, CM […] MONO 200).
(An ELISA detects its analyte on a solid surface through an enzyme-linked reagent.)

Experiment [3] addresses T2, Siglec-15-Fc (R&D systems) (UniProt Q6ZMC9 20-263, limits assumed).
T2 construct: Bought reagent; not shown: Fc part of the bought fusion; not described
T2 sequence (looked up): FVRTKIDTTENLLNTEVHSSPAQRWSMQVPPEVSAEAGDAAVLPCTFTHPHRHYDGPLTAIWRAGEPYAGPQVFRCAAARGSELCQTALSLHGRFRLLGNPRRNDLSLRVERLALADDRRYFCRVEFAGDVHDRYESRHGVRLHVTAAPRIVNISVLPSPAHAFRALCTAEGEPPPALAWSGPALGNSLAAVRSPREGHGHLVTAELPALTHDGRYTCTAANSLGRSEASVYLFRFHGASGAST
The experiment in a line: ELISA, coated Siglec-15-Fc 1 µg/ml, single antibody concentration, anti-human Fab detection, Abs 450 nm, n=3. The method, then:
as §1, §2, §3

Experiment [4] deals with T3, Siglec-9 expressed on cells (human, UniProt Q9Y336 18-463).
T3 construct: also called monocyte-expressed Siglec-9
The experiment in a line: flow cytometry on human CD14+ monocytes (PBMC), mean RFU of the anti-human secondary antibody, three-parameter fit. Here is the method:
(§4) Human ex vivo PBMC were stained with fluorescence-labeled (allophycocyanin, APC) antibody to the monocyte marker CD14 (Biolegend) in assay buffer (0.5% (v/v) heat-inactivated fetal bovine serum (Gibco), 2 mM EDTA in phosphate-buffered saline). Subsequently, cells were incubated with antibodies under evaluation at various concentrations (67 nM-0.38 pM). After a washing step cells were incubated with fluorescence-labeled (Brilliant Violet 421™) secondary antibody against human IgG (mAbA) or rabbit IgG (all other monoclonal antibodies under evaluation; both secondary antibodies from Biolegend).
(§5) Binding of Siglec-9-specific antibodies to monocytes (CD14-positive life cells) was analysed with a CytoFLEX flow cytometer (Beckham Coulter's). The mean fluorescence intensity of the secondary antibody staining in the CD14-positive population at each dilution was determined using Flow Jo software (BD). Datapoints generated by this analysis were fitted and EC50 values were determined by three-parameter analysis in GraphPad Prism (GraphPad Software)
(In general: Flow cytometry measures light scatter and fluorescence of single cells or particles in a stream.)

Experiment [5] has as its target T4, Siglec-9-Fc (in-house production).
T4 construct: The entry holds the Siglec-9 part and the Fc together; also called Siglec-9-Fc protein
Description: blocking assay: Calcein-AM labelled sialic acid-displaying A549 tumour cells binding to plate-captured Siglec-9-Fc, antibody titrated, n=3. Here is the method: FIG. 4: Titration of monoclonal antibodies (68D4 and 224B1; comparative monoclonal antibodies mAbA and 5C6 & negative control 53C3) to determine blocking the binding of sialic acid-displaying A549 tumour cells to Siglec-9. Tumour cells were fluorescently-loaded with Calcein-AM in advance to the binding experiment and binding was determined by the released fluorescence upon cell lysis. Fluorescence released in the absence of antibody was set to 100% binding. Data was fitted by three-parameter analysis in GraphPad Prism (GraphPad Software); n=3.
To analyse if anti-Siglec-9 antibodies recognize the ligand-binding domain and block the binding of Siglec-9 to its ligands, sialic acids, we performed a cell-based assay where the binding of sialic-acid expressing A549 tumour cells to Siglec-9-Fc is evaluated in ELISA. ELISA-plates were coated with 3 μg/ml Protein-A (Thermo Fisher Scientific) overnight at 4° C. Plates were blocked with PBS, 1% BSA for 1 h, and incubated with 5 μg/ml Siglec-9-Fc for 1 h at RT. Anti-Siglec-9 antibodies at different concentrations (starting at 8 μg/ml or 53 nM); were mixed 1:1 with Calcein-AM (Thermo Fisher Scientific) labeled A549 tumour cells. The mixture was added to the ELISA plate and incubated for 1 h at 4° C. After washing of the plate, cells that were bound to the plate were lysed with PBS, 1% Triton-X 100 and released fluorescence was measured at an excitation of 485 nm and emission of 535 nm with a Synergy H1 (BioTek). Data were fitted by three-parameter analysis in GraphPad Prism (GraphPad Software).

Experiment [6] deals with T3, Siglec-9 expressed on cells. Description: flow cytometry on human CD14+ monocytes in PBMC. The method, then: as §4, §5
Experiment [7] has as its target T5, Siglec-7-Fc (in-house production).
T5 construct: The entry holds the Siglec-7 part and the Fc together; also called Siglec-7-Fc protein
The experiment in a line: ELISA, coated Siglec-7-Fc 1 µg/ml, antibody at 5 µg/ml (33 nM), Abs 450 nm, n=3. The method, then: as §1, §2, §3

Siglec-9 protein (construct not stated; antigen of Examples 3 and 4), sequence (Q9Y336 18-348 limits assumed): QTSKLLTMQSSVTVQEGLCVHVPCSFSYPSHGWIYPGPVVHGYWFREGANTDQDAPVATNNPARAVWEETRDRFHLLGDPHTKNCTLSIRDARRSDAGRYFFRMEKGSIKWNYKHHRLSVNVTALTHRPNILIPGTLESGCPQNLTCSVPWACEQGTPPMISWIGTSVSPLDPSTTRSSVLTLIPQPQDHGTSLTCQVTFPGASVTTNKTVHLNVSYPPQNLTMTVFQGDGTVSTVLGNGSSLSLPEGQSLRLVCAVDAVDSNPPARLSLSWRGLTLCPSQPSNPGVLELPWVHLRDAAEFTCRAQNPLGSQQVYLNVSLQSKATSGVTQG
T4 sequence (chain, as listed by the source limits assumed): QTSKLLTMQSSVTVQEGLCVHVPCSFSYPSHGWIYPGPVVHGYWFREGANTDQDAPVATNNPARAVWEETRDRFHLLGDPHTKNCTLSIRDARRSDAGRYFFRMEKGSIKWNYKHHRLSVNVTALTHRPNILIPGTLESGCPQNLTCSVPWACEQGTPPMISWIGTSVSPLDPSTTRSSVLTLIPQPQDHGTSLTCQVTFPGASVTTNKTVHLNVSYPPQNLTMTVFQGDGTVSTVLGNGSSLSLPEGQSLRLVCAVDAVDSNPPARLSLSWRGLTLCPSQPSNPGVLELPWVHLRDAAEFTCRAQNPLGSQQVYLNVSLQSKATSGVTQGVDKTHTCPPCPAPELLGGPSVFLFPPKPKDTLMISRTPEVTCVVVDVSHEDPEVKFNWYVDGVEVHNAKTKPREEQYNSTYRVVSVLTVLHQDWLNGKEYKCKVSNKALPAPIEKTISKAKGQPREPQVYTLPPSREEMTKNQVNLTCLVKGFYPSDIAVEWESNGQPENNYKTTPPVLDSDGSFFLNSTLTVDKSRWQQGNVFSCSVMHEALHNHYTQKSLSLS
T3 sequence (Q9Y336 18-463 limits assumed): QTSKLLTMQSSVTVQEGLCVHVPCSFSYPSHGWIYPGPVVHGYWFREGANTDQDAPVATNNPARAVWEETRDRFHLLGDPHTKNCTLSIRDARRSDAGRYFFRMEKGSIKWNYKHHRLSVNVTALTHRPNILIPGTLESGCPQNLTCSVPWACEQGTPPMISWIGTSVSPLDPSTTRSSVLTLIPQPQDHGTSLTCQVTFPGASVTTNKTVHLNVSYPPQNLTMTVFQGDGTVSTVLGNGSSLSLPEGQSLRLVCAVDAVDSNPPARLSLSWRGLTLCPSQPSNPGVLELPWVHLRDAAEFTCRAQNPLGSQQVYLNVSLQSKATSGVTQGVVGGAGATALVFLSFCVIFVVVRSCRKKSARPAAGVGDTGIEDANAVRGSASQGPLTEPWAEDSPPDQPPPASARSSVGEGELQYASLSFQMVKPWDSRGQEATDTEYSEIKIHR
T5 sequence (chain, as listed by the source limits assumed): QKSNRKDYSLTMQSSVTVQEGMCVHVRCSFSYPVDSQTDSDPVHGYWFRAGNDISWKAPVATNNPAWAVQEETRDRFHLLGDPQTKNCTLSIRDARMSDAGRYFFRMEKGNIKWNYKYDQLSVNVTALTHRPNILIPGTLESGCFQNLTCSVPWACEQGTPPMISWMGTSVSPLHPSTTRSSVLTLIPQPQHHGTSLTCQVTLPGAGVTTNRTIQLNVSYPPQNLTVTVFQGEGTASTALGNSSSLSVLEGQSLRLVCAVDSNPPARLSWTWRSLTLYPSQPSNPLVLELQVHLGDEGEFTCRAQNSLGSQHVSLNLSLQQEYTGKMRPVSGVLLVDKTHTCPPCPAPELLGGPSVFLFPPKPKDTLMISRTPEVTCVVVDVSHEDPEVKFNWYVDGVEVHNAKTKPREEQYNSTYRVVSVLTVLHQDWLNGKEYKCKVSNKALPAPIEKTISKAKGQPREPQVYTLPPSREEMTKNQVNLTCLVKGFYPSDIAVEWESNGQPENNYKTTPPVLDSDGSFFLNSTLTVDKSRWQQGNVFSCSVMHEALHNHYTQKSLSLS
T1 sequence (Q9NYZ4 17-363 limits assumed): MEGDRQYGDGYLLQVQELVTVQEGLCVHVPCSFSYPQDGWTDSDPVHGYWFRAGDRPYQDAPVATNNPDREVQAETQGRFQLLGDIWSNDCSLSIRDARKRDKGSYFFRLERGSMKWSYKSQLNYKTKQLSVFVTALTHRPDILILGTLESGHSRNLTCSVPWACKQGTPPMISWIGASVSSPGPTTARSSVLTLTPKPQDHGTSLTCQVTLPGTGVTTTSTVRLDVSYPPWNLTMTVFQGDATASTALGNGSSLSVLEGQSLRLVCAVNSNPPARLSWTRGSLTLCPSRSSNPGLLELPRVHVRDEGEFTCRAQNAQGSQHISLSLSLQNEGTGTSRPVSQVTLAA

B1: comparative monoclonal antibody mAbA (WO 2017/153433), mouse-human chimera (antibody, human IgG1, kappa, V domains shown)
VH: QVQLQQPGAELVKPGSPVKLSCKASYFTFTSYWMHWVRQRPGQGLEWIGEINPSNGHTNYNEKFESKATLTVDRSSSTAYMQLSSLTSEDSAVFYCANGVESYDFDDALDYWGQGTSVTVSS
VL: DIQMTQTTSSLSASLGDRVTISCRASQDINNYLNWYQQKPDGTIKLLIYYTSRLHSGVPSRFSGSGSGTDYSLTINNLEQEDIATYFCQQGNTLPFTFGGGTKLEIKR
In experiment [1], B1 came in with a Kd of 2.5 nM. This molecule also registered a koff in experiment [1] of 0.00053 s⁻¹. Moreover, the kon in experiment [1] came out at 210000 M⁻¹ s⁻¹. In addition, the binding result in experiment [2] is listed as “no binding (tested: 5 µg/ml)”; in experiment [3] it was “no binding (tested: 5 µg/ml)”; in experiment [5] it was “binds”. In experiment [4], this molecule showed an EC50 of 0.58 nM.

B2: monoclonal antibody 224B1 (rabbit) (antibody, V domains shown)
VH: QSVEESGGRLVTPETPLTLTCTASGFSLSSYYMSWVRQAPGKGLEWIGYIWTDGSAHYATWTKGRFTISKTSSTTVDLKITSPTTEDTATYFCVRANSGSHTYIEKFNLWGPGTLVTVSS
VL: DVVMTQTPASVEATVGGSVTIKCQASPSINDELSWYQQKPGQRPTLLIYEASALESGVPSRFKGSGSGTEFTLTIGDLECADAATYYCQCTYGSRSDISYGNTFGGGTEVVVKG
With B2, the “fold stronger binding than 5C6” value in experiment [6] was around 10 fold. In experiment [1], this molecule displayed a Kd of 5.1 nM, a koff of 0.0012 s⁻¹ and a kon of 230000 M⁻¹ s⁻¹. In addition, in experiment [7], the binding result was “binds”. Also, the binding result in experiment [5] is “binds”.

What is called Kd is the constant that tells how readily two partners part at equilibrium. Read a high Kd as weaker binding. Usually koff stands for the rate constant with which the complex falls apart. A low value points to slow dissociation. By kon is commonly meant a measure of how fast the partners come together. What is called EC50 is the concentration needed to bring the measured effect to its halfway point. Low readings indicate an effect from little substance, high ones a need for much substance.

(Values after patent US20230009582A1 (MEMO THERAPEUTICS, published 2023).)
